The results in this text go back to publication PMC3097237, “Exploiting Nucleotide Composition to Engineer Promoters”.

The target in series [1] is T1, TFIIB (UniProt Q00403).
T1 sequence: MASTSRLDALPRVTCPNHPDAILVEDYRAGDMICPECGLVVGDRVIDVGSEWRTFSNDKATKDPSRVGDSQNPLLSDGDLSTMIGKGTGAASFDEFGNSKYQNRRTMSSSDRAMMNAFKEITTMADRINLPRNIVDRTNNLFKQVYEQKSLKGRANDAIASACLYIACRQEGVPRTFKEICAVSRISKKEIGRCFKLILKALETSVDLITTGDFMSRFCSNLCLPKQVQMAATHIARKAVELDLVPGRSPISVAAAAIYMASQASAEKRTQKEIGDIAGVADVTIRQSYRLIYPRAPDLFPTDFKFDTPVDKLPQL
As to the kind of experiment: BLI. Conditions: BLI (ForteBio Octet QK), streptavidin sensors loaded with biotinylated DNA 25 ug/ml, 1x Kinetics Buffer (ForteBio); salt, pH and temperature not stated. (In general: In BLI a coated tip is dipped into the sample, and binding shifts an interference pattern.)

Series [2] addresses TFIIB (UniProt Q00403 1-316). As to the kind of experiment: BLI; kon 3.03E+04 1/Ms; koff 1.93E-03 1/s; 270 nM TFIIB; BLI (ForteBio Octet QK), streptavidin sensors loaded with biotinylated DNA 25 ug/ml, 1x Kinetics Buffer (ForteBio); salt, pH and temperature not stated. The note with it: protein: commercial; label: 5' biotin (one strand, PCR primer).

Turning to “AACGGTGCGCGTTAAAACGCCGACGCGTCATAACCGCGACTCGTCGACGCAGCGCCGGCGTATAAGCGCGCCGTACGTCAACCGTCGACGTTAGTCCGACGATCGCGGCGTCTATACGCCGCGTCAATCGCGCGCGGTTCAACGTCGCGCTACGGGCGCGTATAAGTCGCGCGGTTAATACGCGCGGTGTACGCGGATGCCGGGGTCGCGTATAATCGGCGCGTATACCTCGCGCGTATACGCGGCGTATTACGGCCGCGTATAATTCGCGCGTATGGACCGCGTACGTCCTACGAGCGT (double strand) [ArS300]”, the Kd (commonly the concentration at which binding is half-saturated) in series [1] stood at 64.6 nM. With “AACGGTGCGCGTTAAAACGGCCGACGCGTCATAACCGCGACTCGTCGACGCAGCGCCGGCGTATAAGCGCGCCGTACGTCAACCGTCGACGTTAGTCCGACGATCGCGGCGTCTATACGCCGCGTCAATCGCGCGCGGTTCAACGTCGCGCTACGGGCGCGTATAAGTCGCGCGTATGGACCGCGTACGTCCTACGAGCGT (double strand) [ArS201]”, the Kd in series [1] was found to be 77.6 nM.

Take “TCGACGCGCGTATAACACGCGAGCGGTTCGAACGTTGGCGCGCTAACGCGAGTCGTACGCCCGTCAACGCGGATCAATCGCGCGACTTGTGCGCGACGTTAGACCGCCGATCGTCAAGCGCCGATCGGTAATCGGACGATTCGGATACGCGAGTTCGGACGTACGAGCGTGATACGGCGCGTAACGGTGCGCGTTAAAACGCCGACGCGTCATAACCGCGACTCGTCGACGC (double strand) [ArS232]”: the Kd in series [1] amounted to 84.5 nM.

B1: ArS110 (dsDNA)
DNA 1: CTACGCCGCGTAAATATCGCGCGCTAACGGTGCGCGTTAAAACGCCGACGCGTCATAAAGCGCCGGCGTATAAGCGCGCCGTACGTCGTCGAACCACGTTAGTCCGGACC
DNA 2: GGTCCGGACTAACGTGGTTCGACGACGTACGGCGCGCTTATACGCCGGCGCTTTATGACGCGTCGGCGTTTTAACGCGCACCGTTAGCGCGCGATATTTACGCGGCGTAG
On to B1, for which the Kd in series [2] amounted to 63.7 nM.
